The supplement of paper PMC9170038

Test system: MS2 coat protein
Test: apparent KD of MS2 coat protein; designed switch direction (-1 OFF switch, 1 ON switch): 1; higher = weaker reporter binding
In short: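 Apparent KD, taken as the median over clusters for each design, was obtained by curve-fitting normalised cluster fluorescence. Designed RNA switches had been transcribed on Illumina chips by stalled E. coli RNA polymerase and titrated with SNAP-549-labelled MS2 coat protein, doubling from 0.7 or 1.5 nM to 3 µM.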

[1] = Eterna round: R95, input ligand: FMN 200 uM
[2] = Eterna round: R95, input ligand: microRNA oligo, concentration not stated
[3] = Eterna round: R95, input ligand: none
[4] = input ligand: microRNA oligo, concentration not stated

“GGAGCCGGCACCGAGGAUAUUCAUAUUAAAACAUGAGGAUCACCCAUGUGGGCCAGAAGGCCUUGGGAGAAGGCGGAUCGGCUCG [Xeonanis - 1] (puzzle: Same State 2)” was tested, and the “apparent KD of MS2 coat protein” value [1] was 15.6 nM, the “apparent KD of MS2 coat protein” value [2] was 216 nM and the “apparent KD of MS2 coat protein” value [3] was 425 nM.
For “GGAGCCGGCACGGAGGAUAUUCAUAUUAAAACAUGAGGAUCACCCAUGUAGGCCAGAAGGCCUUGGGAGAAGGCCGAUCGGCUCG [Xeonanis - 15] (Eterna round: R96, puzzle: Same State 2)”, the “apparent KD of MS2 coat protein” value (input ligand: FMN 200 uM) was 21.2 nM, the “apparent KD of MS2 coat protein” value [4] was 258 nM and the “apparent KD of MS2 coat protein” value (input ligand: none) was 333 nM.
In the case of “GGAGCCGGCACGGAGGAUAUUCAUAUUAAAACAUGAGGAUCACCCAUGUAGGCCAGAAGGCCUUGGGAGAAGGCCGAUCGGCUCG [Xeonanis - 15] (puzzle: Same State 2)”, the “apparent KD of MS2 coat protein” value [1] is reported as 21.9 nM, the “apparent KD of MS2 coat protein” value [2] is reported as 306 nM and the “apparent KD of MS2 coat protein” value [3] is reported as 409 nM.
“GGAGCCGGCAGGCAGGAUAUUCAUAUUAAAACAUGAGGAUCACCCAUGUAGGCCAGAAGGCCUUGGGAGAAGGGCCAUCGGCUCG [Xeonanis - 13] (puzzle: Same State 2)” was tested, and the “apparent KD of MS2 coat protein” value [1] was 27.8 nM, the “apparent KD of MS2 coat protein” value [2] was 225 nM and the “apparent KD of MS2 coat protein” value [3] was 569 nM.
For “GGAGCCGGCCUAGGAUAUUUCAUAAAAGAACAUGAGGAUCACCCAUGUAGGCCAGAAGGCCUUGGGAAGAAGGAGGUCGGCUCC [Loop Effect - G28] (Eterna round: R96, puzzle: Same State NG 2)”, the “apparent KD of MS2 coat protein” value (input ligand: FMN 200 uM) was 14.4 nM, the “apparent KD of MS2 coat protein” value [4] was 22.4 nM and the “apparent KD of MS2 coat protein” value (input ligand: none) was 31.8 nM.
With “GGAGCCGGCCUAGGAUAUUUCAUAAAUUUACAUGAGGAUCACCCAUGUAGGCCAGAAGGCCUUGGGAAGAAGGAGGUCGGCUCC [Loop Effect - U27,U28,U29] (Eterna round: R96, puzzle: Same State NG 2)” the “apparent KD of MS2 coat protein” value (input ligand: FMN 200 uM) was 11.3 nM, the “apparent KD of MS2 coat protein” value [4] was 27.5 nM and the “apparent KD of MS2 coat protein” value (input ligand: none) was 40.5 nM.
For “GGAGCCGGUACUGAGGAUAUUCAUAUUAAAACAUGAGGAUCACCCAUGUAGGCCAGAAGGCCUUGGGAGAAGGCGGACCAGCUCG [Atgexeedri - 1] (Eterna round: R96, puzzle: Same State 2)”, the “apparent KD of MS2 coat protein” value (input ligand: FMN 200 uM) was 27.5 nM, the “apparent KD of MS2 coat protein” value [4] was 302 nM and the “apparent KD of MS2 coat protein” value (input ligand: none) was 417 nM.
“GGAGCCGGUACUGAGGAUAUUCAUAUUAAAACAUGAGGAUCACCCAUGUAGGCCAGAAGGCCUUGGGAGAAGGCGGACCAGCUCG [Atgexeedri - 1] (puzzle: Same State 2)” was tested, and the “apparent KD of MS2 coat protein” value [1] was 18.8 nM, the “apparent KD of MS2 coat protein” value [2] was 283 nM and the “apparent KD of MS2 coat protein” value [3] was 414 nM.
With “GGAGCCGGUACUGAGGAUAUUCAUAUUAAAACAUGAGGAUCACCCAUGUAGGCCGGAAGGCCUUGGGAGAAGGCAGACCAGCUCG [Atgexeedri - 7] (puzzle: Same State 2)” the “apparent KD of MS2 coat protein” value [1] was 23.1 nM, the “apparent KD of MS2 coat protein” value [2] was 255 nM and the “apparent KD of MS2 coat protein” value [3] was 441 nM.
With “GGAGCCGGUACUGAGGAUAUUCAUAUUAAAACAUGAGGAUCACCCAUGUGGGCCAGAAGGCCUUGGGAGAAGGCAGAUCGGCUCC [Biseusra - 3] (puzzle: Same State 2)” the “apparent KD of MS2 coat protein” value [1] was 19 nM, the “apparent KD of MS2 coat protein” value [2] was 93.3 nM and the “apparent KD of MS2 coat protein” value [3] was 145 nM.
In the case of “GGAGGACAUGAGGAUCACCCAUGUAAAUGGGCGCUAGGAUAUGCGAGAGGGUGGAGAGGAGCAGAAGGAGUGGAUA [JR_SS1_Sub039] (puzzle: Same State 1)”, the “apparent KD of MS2 coat protein” value [1] is reported as 105 nM, the “apparent KD of MS2 coat protein” value [2] is reported as 180 nM and the “apparent KD of MS2 coat protein” value [3] is reported as 207 nM.
For “GGAGGACAUGAGGAUCACCCAUGUAGAUGGGCGCUAGGAUAUGCGAGAGGGUAGAGAGAAGCAGAAGGAGUGGAUU [JR_SS1_Sub041] (puzzle: Same State 1)”, the “apparent KD of MS2 coat protein” value [1] was 156 nM, the “apparent KD of MS2 coat protein” value [2] was 259 nM and the “apparent KD of MS2 coat protein” value [3] was 214 nM.
For “GGAUCAUGACGAGGAUAUGGUACAUGAGGAUCACCCAUGUAUGUACCAUAACGCGUACGACGAAACCAGAAGGCGUCGUGGUCG [Mat - Same State NG 2 - JL mod - D40] (Eterna round: R96, puzzle: Same State NG 2)”, the “apparent KD of MS2 coat protein” value (input ligand: FMN 200 uM) was 9.88 nM, the “apparent KD of MS2 coat protein” value [4] was 21 nM and the “apparent KD of MS2 coat protein” value (input ligand: none) was 28 nM.
In the case of “GGAUGAUAGACAGGAUAUUGAAUGUAAAUAGGACAAGAAGGGUCAAUGAUUUAAACGACCAGUUACAUGAGGAUCACCCAUGUU [JR_SSNG1_Sub024] (Eterna round: R96, puzzle: Same State NG 1)”, the “apparent KD of MS2 coat protein” value (input ligand: FMN 200 uM) is reported as 29.4 nM, the “apparent KD of MS2 coat protein” value [4] is reported as 36.7 nM and the “apparent KD of MS2 coat protein” value (input ligand: none) is reported as 36.6 nM.
For “GGAUGAUAGACAGGAUAUUGAAUGUAAUUAGGACAAGAAGGGUCAAUGAUUUAAACGACCAGUUACAUGAGGAUCACCCAUGUU [JR_SSNG1_Sub025] (Eterna round: R96, puzzle: Same State NG 1)”, the “apparent KD of MS2 coat protein” value (input ligand: FMN 200 uM) was 44.9 nM, the “apparent KD of MS2 coat protein” value [4] was 38.1 nM and the “apparent KD of MS2 coat protein” value (input ligand: none) was 49.1 nM.
For “GGAUGAUGGACAGGAUAUUGAUUUUAAUGGUUUCAAGAAGGGUCUUUGAUUUAAACGACCAGUUACAUGAGGAUCACCCAUGUU [JR_SSNG1_Sub032] (Eterna round: R96, puzzle: Same State NG 1)”, the “apparent KD of MS2 coat protein” value (input ligand: FMN 200 uM) was 40.1 nM, the “apparent KD of MS2 coat protein” value [4] was 36.1 nM and the “apparent KD of MS2 coat protein” value (input ligand: none) was 52 nM.
For “GGAUGAUUAAUAGGAUAUUAUUUGUAAAUUGGUUAAGAAGGAUUAAUGAUUUAAACGACCUGUUACAUGAGGAUCACCCAUGUU [JR_SSNG1_Sub090] (Eterna round: R96, puzzle: Same State NG 1)”, the “apparent KD of MS2 coat protein” value [4] was 33.2 nM.
With “GGCAUACAUGAGGAUCACCCAUGUUCAACCUAGAUAGGAUAUGGGCCUCUUGUAUUAGGCCCAGAAGGAUCUGUAA [Regea] (puzzle: Same State 1)” the “apparent KD of MS2 coat protein” value [2] was 86.4 nM.
With “GGCCGGAGUCAAGGAUAUGCUACCGUUUCGGUAGCAGAAGGUGAUCACAUGAGGAUCACCCAUGUUUACUGGGAGACCACGGCC [JL SSNG1 3.70] (Eterna round: R96, puzzle: Same State NG 1)” the “apparent KD of MS2 coat protein” value (input ligand: FMN 200 uM) was 105 nM, the “apparent KD of MS2 coat protein” value [4] was 134 nM and the “apparent KD of MS2 coat protein” value (input ligand: none) was 166 nM.
With “GGCCUCUGUCAAGGAUAUGCUACCGUUUCGGUAGCAGAAGGUGAUCACAUGCGGGUCACCCAUGUUUAGGCCAACAGGCCCGCC (Eterna round: R96, puzzle: Same State NG 1)” the “apparent KD of MS2 coat protein” value (input ligand: FMN 200 uM) was 63 nM, the “apparent KD of MS2 coat protein” value [4] was 1.08 nM and the “apparent KD of MS2 coat protein” value (input ligand: none) was 3.57 nM.
“GGCCUGCCGCAAGGAUAUGAAGCUUUCGCUCCGUCAGAAGGUGCACAUGAGGAUCACCCAUGUAGGCAGGCCAAGAACUAAAAC [Veveanus] (Eterna round: R96, puzzle: Same State NG 1)” was tested, and the “apparent KD of MS2 coat protein” value (input ligand: FMN 200 uM) was 213 nM, the “apparent KD of MS2 coat protein” value [4] was 42 nM and the “apparent KD of MS2 coat protein” value (input ligand: none) was 123 nM.
In the case of “GGCGUAUAAACAUGAGGAUCACCCAUGUAGCGGAGACGCAAUGAGGAUAUCGAUGGGUUUCCCGUCGAGAAGGCAUGGGUCGCC [JL SSNG3 3.93] (Eterna round: R96, puzzle: Same State NG 3)”, the “apparent KD of MS2 coat protein” value (input ligand: FMN 200 uM) is reported as 17 nM, the “apparent KD of MS2 coat protein” value [4] is reported as 79.9 nM and the “apparent KD of MS2 coat protein” value (input ligand: none) is reported as 105 nM.
With “GGCUAUCGCGUACGAUAGCUUAAGCAUGUACAUGAGGAUCACCCAUGUCAUGUACAGGCUUUUUGCUCGUCUUAUUG [JL-shm-2.35 JL mod] (puzzle: Sensor for hsa-mir-208a)” the “apparent KD of MS2 coat protein” value [1] was 517 nM, the “apparent KD of MS2 coat protein” value [2] was 17 nM and the “apparent KD of MS2 coat protein” value [3] was 467 nM.
For “GGCUAUCGCGUACGAUAGCUUAGGCAUGUACAUGAGGAUCACCCAUGUCAUGUACAGGCUUGUUGCUCGUCUUAUUG [JL-shm-2.37 JL mod] (puzzle: Sensor for hsa-mir-208a)”, the “apparent KD of MS2 coat protein” value [1] was 202 nM, the “apparent KD of MS2 coat protein” value [2] was 15.8 nM and the “apparent KD of MS2 coat protein” value [3] was 291 nM.
